# Assay results published in the Human Domainome abundance scans (Beltran et al. 2025).
# ± gives the uncertainty stated by the source.
# B1: Arginine-glutamic acid dipeptide repeats protein, residues 502 to 543; numbered along this chain, Q9P2R6 (parent)
# chain: LKGYACRHCFTTTSKDWHHGGRENILLCTDCRIHFKKYGELP
# Variants of: B1
# Experiment: abundance fitness (aPCA) (normalised: wild type 0, dead -1); higher = more abundant; growth selection in yeast, the domain comes from the species named
# Conditions: Homo sapiens
row,Variant,abundance fitness
1,LKGYACRHCFTTTEKDWHHGGRENILLCTDCRIHFKKYGELP [S14E],-0.223 ± 0.043
2,LKGYACRHCFTTTKKDWHHGGRENILLCTDCRIHFKKYGELP [S14K],-0.066 ± 0.12
3,LKGYACRHCFTTTGKDWHHGGRENILLCTDCRIHFKKYGELP [S14G],-0.291 ± 0.035
4,LKGYACRHCFTTTLKDWHHGGRENILLCTDCRIHFKKYGELP [S14L],-0.536 ± 0.038
5,LKGYACRHCFTTTFKDWHHGGRENILLCTDCRIHFKKYGELP [S14F],-0.516 ± 0.19
6,LKGYACRHCFTTTRKDWHHGGRENILLCTDCRIHFKKYGELP [S14R],-0.451 ± 0.034
7,LKGYACRHCFTTTPKDWHHGGRENILLCTDCRIHFKKYGELP [S14P],-0.361 ± 0.048
8,LKGYACRHCFTTTMKDWHHGGRENILLCTDCRIHFKKYGELP [S14M],-0.455 ± 0.098
9,LKGYACRHCFTTTTKDWHHGGRENILLCTDCRIHFKKYGELP [S14T],-0.226 ± 0.049
10,LKGYACRHCFTTTVKDWHHGGRENILLCTDCRIHFKKYGELP [S14V],-0.476 ± 0.047
11,LKGYACRHCFTTTCKDWHHGGRENILLCTDCRIHFKKYGELP [S14C],-0.315 ± 0.068
12,LKGYACRHCFTTTYKDWHHGGRENILLCTDCRIHFKKYGELP [S14Y],-0.473 ± 0.09
13,LKGYACRHCFTTTDKDWHHGGRENILLCTDCRIHFKKYGELP [S14D],-0.073 ± 0.11
14,LKGYACRHCFTTTWKDWHHGGRENILLCTDCRIHFKKYGELP [S14W],-0.657 ± 0.058
15,LKGYACRHCFTTTAKDWHHGGRENILLCTDCRIHFKKYGELP [S14A],-0.228 ± 0.036
16,LKGYACRHCFTTTIKDWHHGGRENILLCTDCRIHFKKYGELP [S14I],-0.454 ± 0.22
17,LKGYACRHCFTLTSKDWHHGGRENILLCTDCRIHFKKYGELP [T12L],-0.338 ± 0.039
18,LKGYACRHCFTATSKDWHHGGRENILLCTDCRIHFKKYGELP [T12A],-0.234 ± 0.038
19,LKGYACRHCFTRTSKDWHHGGRENILLCTDCRIHFKKYGELP [T12R],-0.141 ± 0.034
20,LKGYACRHCFTPTSKDWHHGGRENILLCTDCRIHFKKYGELP [T12P],-0.317 ± 0.043

row,Variant,abundance fitness
1,LKGYACRHCFTNTSKDWHHGGRENILLCTDCRIHFKKYGELP [T12N],-0.251 ± 0.13
2,LKGYACRHCFTWTSKDWHHGGRENILLCTDCRIHFKKYGELP [T12W],-0.669 ± 0.058
3,LKGYACRHCFTQTSKDWHHGGRENILLCTDCRIHFKKYGELP [T12Q],-0.159 ± 0.049
4,LKGYACRHCFTKTSKDWHHGGRENILLCTDCRIHFKKYGELP [T12K],-0.135 ± 0.048
5,LKGYACRHCFTMTSKDWHHGGRENILLCTDCRIHFKKYGELP [T12M],-0.241 ± 0.052
6,LKGYACRHCFTFTSKDWHHGGRENILLCTDCRIHFKKYGELP [T12F],-0.314 ± 0.32
7,LKGYACRHCFTYTSKDWHHGGRENILLCTDCRIHFKKYGELP [T12Y],-0.549 ± 0.14
8,LKGYACRHCFTETSKDWHHGGRENILLCTDCRIHFKKYGELP [T12E],-0.175 ± 0.051
9,LKGYACRHCFTSTSKDWHHGGRENILLCTDCRIHFKKYGELP [T12S],-0.205 ± 0.044
10,LKGYACRHCFTDTSKDWHHGGRENILLCTDCRIHFKKYGELP [T12D],-0.141 ± 0.055
11,LKGYACRHCFTCTSKDWHHGGRENILLCTDCRIHFKKYGELP [T12C],-0.304 ± 0.043
12,LKGYACRHCFTGTSKDWHHGGRENILLCTDCRIHFKKYGELP [T12G],-0.312 ± 0.032
13,LKGYACRHCFTVTSKDWHHGGRENILLCTDCRIHFKKYGELP [T12V],-0.343 ± 0.033
14,LKGYACRHCFYTTSKDWHHGGRENILLCTDCRIHFKKYGELP [T11Y],-0.607 ± 0.066
15,LKGYACRHCFFTTSKDWHHGGRENILLCTDCRIHFKKYGELP [T11F],-0.561 ± 0.43
16,LKGYACRHCFETTSKDWHHGGRENILLCTDCRIHFKKYGELP [T11E],-0.4 ± 0.047
17,LKGYACRHCFWTTSKDWHHGGRENILLCTDCRIHFKKYGELP [T11W],-0.589 ± 0.046
18,LKGYACRHCFVTTSKDWHHGGRENILLCTDCRIHFKKYGELP [T11V],-0.195 ± 0.036
19,LKGYACRHCFDTTSKDWHHGGRENILLCTDCRIHFKKYGELP [T11D],-0.277 ± 0.068
20,LKGYACRHCFATTSKDWHHGGRENILLCTDCRIHFKKYGELP [T11A],-0.136 ± 0.035

row,Variant,abundance fitness
1,LKGYACRHCFLTTSKDWHHGGRENILLCTDCRIHFKKYGELP [T11L],-0.375 ± 0.043
2,LKGYACRHCFMTTSKDWHHGGRENILLCTDCRIHFKKYGELP [T11M],-0.413 ± 0.045
3,LKGYACRHCFPTTSKDWHHGGRENILLCTDCRIHFKKYGELP [T11P],-0.51 ± 0.066
4,LKGYACRHCFGTTSKDWHHGGRENILLCTDCRIHFKKYGELP [T11G],-0.241 ± 0.032
5,LKGYACRHCFCTTSKDWHHGGRENILLCTDCRIHFKKYGELP [T11C],-0.219 ± 0.046
6,LKGYACRHCFNTTSKDWHHGGRENILLCTDCRIHFKKYGELP [T11N],-0.168 ± 0.066
7,LKGYACRHCFKTTSKDWHHGGRENILLCTDCRIHFKKYGELP [T11K],-0.172 ± 0.052
8,LKGYACRHCFITTSKDWHHGGRENILLCTDCRIHFKKYGELP [T11I],-0.204 ± 0.05
9,LKGYACRHCFQTTSKDWHHGGRENILLCTDCRIHFKKYGELP [T11Q],-0.278 ± 0.046
10,LKGYACRHCFSTTSKDWHHGGRENILLCTDCRIHFKKYGELP [T11S],-0.083 ± 0.035
11,LKGYACRHCFRTTSKDWHHGGRENILLCTDCRIHFKKYGELP [T11R],-0.236 ± 0.033
12,LKGYACRHCFTTRSKDWHHGGRENILLCTDCRIHFKKYGELP [T13R],0.012 ± 0.036
13,LKGYACRHCFTTWSKDWHHGGRENILLCTDCRIHFKKYGELP [T13W],-0.31 ± 0.044
14,LKGYACRHCFTTPSKDWHHGGRENILLCTDCRIHFKKYGELP [T13P],-0.484 ± 0.066
15,LKGYACRHCFTTMSKDWHHGGRENILLCTDCRIHFKKYGELP [T13M],-0.185 ± 0.058
16,LKGYACRHCFTTLSKDWHHGGRENILLCTDCRIHFKKYGELP [T13L],-0.223 ± 0.054
17,LKGYACRHCFTTISKDWHHGGRENILLCTDCRIHFKKYGELP [T13I],-0.282 ± 0.08
18,LKGYACRHCFTTESKDWHHGGRENILLCTDCRIHFKKYGELP [T13E],0.014 ± 0.047
19,LKGYACRHCFTTASKDWHHGGRENILLCTDCRIHFKKYGELP [T13A],-0.054 ± 0.032
20,LKGYACRHCFTTNSKDWHHGGRENILLCTDCRIHFKKYGELP [T13N],-0.043 ± 0.1
